Test results: US20240417464A1 (published 2024)

Columns and labels:
[1] = target: T1, antibody-half molecule A1 with PF1H and PF1L-k0 (PF1H-DA303v2/PF1L-k0); experiment: SPR (Biacore T200), about 50 RU of half molecule A captured on chip-bound biotinylated antigen peptide, half molecule B at 2.5 mg/mL as analyte (Example 10)
Procedure: (§1) The interaction between the obtained antibody-half molecules was analyzed using Biacore (registered trademark) T200. Biotin CAPture Kit, Series S (GE Healthcare) was used for the measurement, and HBS-EP+10X (GE Healthcare) diluted 1/10th was used as a running buffer. The measurement temperature was 25° C. For the sensor chip, Series S Sensor Chip CAP (GE Healthcare) onto which previously-biotinylated antigen peptides were allowed to interact and thereby immobilized was used. These chips were allowed to capture approximately 50 RU of the antibody-half molecule A of interest and then interact with the antibody-half molecule B of interest diluted with the running buffer at 2.5 mg/mL for 180 seconds at a flow rate of 30 μL/min, and measurement was carried out. The molar binding ratio was calculated based on the following Formula 2. The antibody-half molecule A captured on the chip was washed as described in the instructions attached to the kit, and the chip was regenerated and reused.
(§2) At this time, for the antibody-half molecule to be captured, PF1H (SEQ ID NO: 22), which is the H chain variable region portion of the anti-human IL6 receptor antibody described in WO 2009/041621, was used as the H chain variable region portion, PF1L (SEQ ID NO: 23), which is the L chain variable region portion of the anti-human IL6 receptor antibody described in WO 2009/041621, was used as the L chain variable region portion, and k0 was used as the L chain constant region portion. In addition, for the antibody-half molecules used as analytes, IC17H (SEQ ID NO: 24), which is the anti-KLH antibody described in WO 2015/174439, was used as the H chain variable region, IC17L (SEQ ID NO: 25), which is the anti-KLH antibody described in WO 2015/174439, was used as the L chain variable region, and k0 was used as L chain constant region.

[2] = target: T1, antibody-half molecule A1 with PF1H and …; experiment: SPR (Biacore T200), about 50 RU of half molecule A captured on chip-bound biotinylated antigen peptide, half molecule B at 2.5 mg/mL as analyte
Procedure: as §1
as §2, with “the antibody-half molecules to be” for “the antibody-half molecule to be”, “used as the L chain” for “used as L chain”

[3] = target: antibody-half molecule A3 with PF1H and PF1L-k0 (PF1H-DA405v2/PF1L-k0); experiment: as above
antibody-half molecule A3 with PF1H and PF1L-k0 (PF1H-DA405v2/PF1L-k0), sequence (heavy, as listed by the source): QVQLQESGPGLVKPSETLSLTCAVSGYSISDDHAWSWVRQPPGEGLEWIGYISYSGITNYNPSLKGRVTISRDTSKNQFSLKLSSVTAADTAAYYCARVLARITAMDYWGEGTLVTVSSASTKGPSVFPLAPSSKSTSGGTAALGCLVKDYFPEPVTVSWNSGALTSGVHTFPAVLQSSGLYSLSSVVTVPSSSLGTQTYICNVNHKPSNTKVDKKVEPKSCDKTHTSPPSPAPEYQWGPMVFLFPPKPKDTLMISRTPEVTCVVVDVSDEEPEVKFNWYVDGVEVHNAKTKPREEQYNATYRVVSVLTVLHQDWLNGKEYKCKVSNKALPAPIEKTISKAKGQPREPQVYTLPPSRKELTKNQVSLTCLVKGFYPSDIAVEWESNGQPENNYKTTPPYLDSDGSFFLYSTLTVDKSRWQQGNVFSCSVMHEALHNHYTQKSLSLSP
Procedure: as §1
as §2, with “the antibody-half molecules to be” for “the antibody-half molecule to be”, “used as the L chain” for “used as L chain”

[4] = target: antibody-half molecule A6 with PF1H and PF1L-k0 (PF1H-DA303v2.n.n/PF1L-k0); experiment: SPR (Biacore T200), about 50 RU of half molecule A captured on chip-bound biotinylated antigen peptide, half molecule B at 2.5 mg/mL as analyte (Example 10)
antibody-half molecule A6 with PF1H and PF1L-k0 (PF1H-DA303v2.n.n/PF1L-k0), sequence (heavy, as listed by the source): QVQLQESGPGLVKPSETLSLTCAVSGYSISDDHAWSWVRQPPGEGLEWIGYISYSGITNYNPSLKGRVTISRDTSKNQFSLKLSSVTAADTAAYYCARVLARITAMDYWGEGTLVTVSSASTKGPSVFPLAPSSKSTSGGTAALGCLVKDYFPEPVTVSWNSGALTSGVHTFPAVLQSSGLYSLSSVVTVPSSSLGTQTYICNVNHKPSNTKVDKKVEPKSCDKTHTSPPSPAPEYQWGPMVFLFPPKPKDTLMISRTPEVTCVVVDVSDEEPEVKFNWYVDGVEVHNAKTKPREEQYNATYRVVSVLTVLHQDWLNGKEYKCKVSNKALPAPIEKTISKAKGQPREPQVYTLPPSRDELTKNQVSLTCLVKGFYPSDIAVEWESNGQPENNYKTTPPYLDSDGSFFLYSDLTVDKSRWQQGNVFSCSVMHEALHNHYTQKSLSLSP
Procedure: as §1, §2

[5] = target: antibody-half molecule A2 with PF1H and PF1L-k0 (PF1H-DA402v2/PF1L-k0); experiment: SPR (Biacore T200), about 50 RU of half molecule A captured on chip-bound biotinylated antigen peptide, half molecule B at 2.5 mg/mL as analyte
antibody-half molecule A2 with PF1H and PF1L-k0 (PF1H-DA402v2/PF1L-k0), sequence (heavy, as listed by the source): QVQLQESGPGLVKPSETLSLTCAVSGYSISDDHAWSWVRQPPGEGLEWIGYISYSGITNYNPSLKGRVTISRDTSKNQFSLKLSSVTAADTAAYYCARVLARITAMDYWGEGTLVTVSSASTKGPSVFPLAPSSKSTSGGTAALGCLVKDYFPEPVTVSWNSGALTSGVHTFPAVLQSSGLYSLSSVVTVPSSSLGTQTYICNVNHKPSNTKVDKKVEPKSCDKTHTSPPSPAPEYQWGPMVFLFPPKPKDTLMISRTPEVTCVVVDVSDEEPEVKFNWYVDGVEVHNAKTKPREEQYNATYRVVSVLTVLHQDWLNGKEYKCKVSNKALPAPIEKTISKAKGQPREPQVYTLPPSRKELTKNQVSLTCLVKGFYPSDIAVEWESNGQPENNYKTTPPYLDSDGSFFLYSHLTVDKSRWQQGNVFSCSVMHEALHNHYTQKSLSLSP
Procedure: as §1
as §2, with “the antibody-half molecules to be” for “the antibody-half molecule to be”, “used as the L chain” for “used as L chain”

[6] = target: antibody-half molecule A4 with PF1H and PF1L-k0 (PF1H-DA424v2/PF1L-k0); experiment: as above
antibody-half molecule A4 with PF1H and PF1L-k0 (PF1H-DA424v2/PF1L-k0), sequence (heavy, as listed by the source): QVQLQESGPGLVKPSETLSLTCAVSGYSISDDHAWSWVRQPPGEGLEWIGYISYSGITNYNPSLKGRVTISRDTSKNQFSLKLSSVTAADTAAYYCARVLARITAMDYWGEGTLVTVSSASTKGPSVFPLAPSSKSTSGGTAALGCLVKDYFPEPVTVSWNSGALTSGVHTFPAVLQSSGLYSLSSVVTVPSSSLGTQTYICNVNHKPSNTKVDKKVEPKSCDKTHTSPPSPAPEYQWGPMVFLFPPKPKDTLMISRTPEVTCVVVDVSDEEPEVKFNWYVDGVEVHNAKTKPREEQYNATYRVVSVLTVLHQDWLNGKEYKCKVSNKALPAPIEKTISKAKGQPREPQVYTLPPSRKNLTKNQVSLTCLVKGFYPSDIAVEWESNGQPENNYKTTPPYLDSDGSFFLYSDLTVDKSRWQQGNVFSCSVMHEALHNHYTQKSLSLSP
Procedure: as §1
as §2, with “the antibody-half molecules to be” for “the antibody-half molecule to be”, “used as the L chain” for “used as L chain”

[7] = target: antibody-half molecule A5 with PF1H and PF1L-k0 (PF1H-DA430v2/PF1L-k0); experiment: as above
antibody-half molecule A5 with PF1H and PF1L-k0 (PF1H-DA430v2/PF1L-k0), sequence (heavy, as listed by the source): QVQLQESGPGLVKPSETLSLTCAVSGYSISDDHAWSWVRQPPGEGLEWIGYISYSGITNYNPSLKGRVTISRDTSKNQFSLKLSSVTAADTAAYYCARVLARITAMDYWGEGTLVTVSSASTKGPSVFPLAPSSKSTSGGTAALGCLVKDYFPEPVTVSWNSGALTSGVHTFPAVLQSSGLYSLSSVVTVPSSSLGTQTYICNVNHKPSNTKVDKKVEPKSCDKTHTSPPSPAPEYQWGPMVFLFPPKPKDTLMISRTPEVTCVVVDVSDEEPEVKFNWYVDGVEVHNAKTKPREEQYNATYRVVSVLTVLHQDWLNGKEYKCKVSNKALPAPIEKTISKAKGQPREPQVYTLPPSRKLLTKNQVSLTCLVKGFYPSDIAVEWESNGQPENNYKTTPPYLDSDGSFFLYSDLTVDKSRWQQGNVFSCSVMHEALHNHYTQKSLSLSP
Procedure: as §1
as §2, with “the antibody-half molecules to be” for “the antibody-half molecule to be”, “used as the L chain” for “used as L chain”

T1 sequence (heavy, as listed by the source): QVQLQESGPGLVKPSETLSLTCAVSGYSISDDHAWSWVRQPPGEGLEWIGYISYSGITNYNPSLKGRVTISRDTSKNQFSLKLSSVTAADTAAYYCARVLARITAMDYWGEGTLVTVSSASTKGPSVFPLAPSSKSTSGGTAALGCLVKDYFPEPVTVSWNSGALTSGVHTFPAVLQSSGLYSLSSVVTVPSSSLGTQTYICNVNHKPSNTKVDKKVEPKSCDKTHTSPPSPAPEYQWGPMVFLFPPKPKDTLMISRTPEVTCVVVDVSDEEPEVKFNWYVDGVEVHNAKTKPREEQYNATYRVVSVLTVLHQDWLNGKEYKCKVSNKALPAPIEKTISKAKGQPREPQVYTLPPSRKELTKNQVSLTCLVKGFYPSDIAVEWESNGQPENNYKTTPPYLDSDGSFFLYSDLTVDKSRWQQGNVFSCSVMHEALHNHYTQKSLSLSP

B1: antibody-half molecule B1 with IC17H and IC17L-k0 (IC17H-DB220v2/IC17L-k0) (antibody, human IgG1, kappa)
heavy: QVQLQQSGPQLVRPGASVKISCKASGYSFTSYWMHWVNQRPGQGLEWIGMIDPSYSETRLNQKFKDKATLTVDKSSSTAYMQLSSPTSEDSAVYYCALYGNYFDYWGQGTTLTVSSASTKGPSVFPLAPSSKSTSGGTAALGCLVKDYFPEPVTVSWNSGALTSGVHTFPAVLQSSGLYSLSSVVTVPSSSLGTQTYICNVNHKPSNTKVDKKVEPKSCDKTHTSPPSPAPELLGGPSVFLFPPKPKDTLMISRTPEVTCVVVDVSHEEPEVKFNWYVDGVEVHNAKTKPREEQYNSTYRVVSVLTVLHQDWLNGKEYKCKVSNDALPMPIEETISKAKGQPREPQVYTLPPSRDELTKNQVSLTCLVKGFYPSDIAVEWESNGQPENNYKTTPPYLDSDGSFFLYSDLTVDKSRWQQGNVFSCSVMHEALHNHYTQESLSLSP
light: DIQMTQSSSSFSVSLGDRVTITCKASEDIYNRLAWYQQKPGNAPRLLISGATSLETGVPSRFSGSGSGKDYTLSITSLQTEDVATYYCQQYWSTPYTFGGGTKLEVKRTVAAPSVFIFPPSDEQLKSGTASVVCLLNNFYPREAKVQWKVDNALQSGNSQESVTEQDSKDSTYSLSSTLTLSKADYEKHKVYACEVTHQGLSSPVTKSFNRGEC
B1 was tested, and the molar binding ratio [1] was 0.54 molar ratio and the molar binding ratio [2] was 0.38 molar ratio.

B2: antibody-half molecule B3 with IC17H and IC17L-k0 (IC17H-DB405v2/IC17L-k0) (antibody, human IgG1, kappa)
heavy: QVQLQQSGPQLVRPGASVKISCKASGYSFTSYWMHWVNQRPGQGLEWIGMIDPSYSETRLNQKFKDKATLTVDKSSSTAYMQLSSPTSEDSAVYYCALYGNYFDYWGQGTTLTVSSASTKGPSVFPLAPSSKSTSGGTAALGCLVKDYFPEPVTVSWNSGALTSGVHTFPAVLQSSGLYSLSSVVTVPSSSLGTQTYICNVNHKPSNTKVDKKVEPKSCDKTHTSPPSPAPELLGGPSVFLFPPKPKDTLMISRTPEVTCVVVDVSHEEPEVKFNWYVDGVEVHNAKTKPREEQYNSTYRVVSVLTVLHQDWLNGKEYKCKVSNDALPMPIEETISKAKGQPREPQVYTLPPSRDELTKNQVSLTCLVKGFYPSDIAVEWESNGQPENNYKTTPPYLDSDGSFFLYSTLTVDKSRWQQGNVFSCSVMHEALHNHYTQESLSLSP
light: DIQMTQSSSSFSVSLGDRVTITCKASEDIYNRLAWYQQKPGNAPRLLISGATSLETGVPSRFSGSGSGKDYTLSITSLQTEDVATYYCQQYWSTPYTFGGGTKLEVKRTVAAPSVFIFPPSDEQLKSGTASVVCLLNNFYPREAKVQWKVDNALQSGNSQESVTEQDSKDSTYSLSSTLTLSKADYEKHKVYACEVTHQGLSSPVTKSFNRGEC
For B2, the molar binding ratio [3] was 0.54 molar ratio.

B3: antibody-half molecule B6 with IC17H and IC17L-k0 (IC17H-DB220v2.n.n/IC17L-k0) (antibody, human IgG1, kappa)
heavy: QVQLQQSGPQLVRPGASVKISCKASGYSFTSYWMHWVNQRPGQGLEWIGMIDPSYSETRLNQKFKDKATLTVDKSSSTAYMQLSSPTSEDSAVYYCALYGNYFDYWGQGTTLTVSSASTKGPSVFPLAPSSKSTSGGTAALGCLVKDYFPEPVTVSWNSGALTSGVHTFPAVLQSSGLYSLSSVVTVPSSSLGTQTYICNVNHKPSNTKVDKKVEPKSCDKTHTSPPSPAPELLGGPSVFLFPPKPKDTLMISRTPEVTCVVVDVSHEEPEVKFNWYVDGVEVHNAKTKPREEQYNSTYRVVSVLTVLHQDWLNGKEYKCKVSNDALPMPIEETISKAKGQPREPQVYTLPPSRDELTKNQVSLTCLVKGFYPSDIAVEWESNGQPENNYKTTPPYLDSDGSFFLYSDLTVDKSRWQQGNVFSCSVMHEALHNHYTQKSLSLSP
light: DIQMTQSSSSFSVSLGDRVTITCKASEDIYNRLAWYQQKPGNAPRLLISGATSLETGVPSRFSGSGSGKDYTLSITSLQTEDVATYYCQQYWSTPYTFGGGTKLEVKRTVAAPSVFIFPPSDEQLKSGTASVVCLLNNFYPREAKVQWKVDNALQSGNSQESVTEQDSKDSTYSLSSTLTLSKADYEKHKVYACEVTHQGLSSPVTKSFNRGEC
B3 showed a molar binding ratio [4] of 0.42 molar ratio.

B4: antibody-half molecule B2 with IC17H and IC17L-k0 (IC17H-DB402v2/IC17L-k0) (antibody, human IgG1, kappa)
heavy: QVQLQQSGPQLVRPGASVKISCKASGYSFTSYWMHWVNQRPGQGLEWIGMIDPSYSETRLNQKFKDKATLTVDKSSSTAYMQLSSPTSEDSAVYYCALYGNYFDYWGQGTTLTVSSASTKGPSVFPLAPSSKSTSGGTAALGCLVKDYFPEPVTVSWNSGALTSGVHTFPAVLQSSGLYSLSSVVTVPSSSLGTQTYICNVNHKPSNTKVDKKVEPKSCDKTHTSPPSPAPELLGGPSVFLFPPKPKDTLMISRTPEVTCVVVDVSHEEPEVKFNWYVDGVEVHNAKTKPREEQYNSTYRVVSVLTVLHQDWLNGKEYKCKVSNDALPMPIEETISKAKGQPREPQVYTLPPSRDELTKNQVSLTCLVKGFYPSDIAVEWESNGQPENNYKTTPPYLDSDGSFFLYSHLTVDKSRWQQGNVFSCSVMHEALHNHYTQESLSLSP
light: DIQMTQSSSSFSVSLGDRVTITCKASEDIYNRLAWYQQKPGNAPRLLISGATSLETGVPSRFSGSGSGKDYTLSITSLQTEDVATYYCQQYWSTPYTFGGGTKLEVKRTVAAPSVFIFPPSDEQLKSGTASVVCLLNNFYPREAKVQWKVDNALQSGNSQESVTEQDSKDSTYSLSSTLTLSKADYEKHKVYACEVTHQGLSSPVTKSFNRGEC
B4 was tested, and the molar binding ratio [5] was 0.63 molar ratio.

B5: antibody-half molecule B4 with IC17H and IC17L-k0 (IC17H-DB424v2/IC17L-k0) (antibody, human IgG1, kappa)
heavy: QVQLQQSGPQLVRPGASVKISCKASGYSFTSYWMHWVNQRPGQGLEWIGMIDPSYSETRLNQKFKDKATLTVDKSSSTAYMQLSSPTSEDSAVYYCALYGNYFDYWGQGTTLTVSSASTKGPSVFPLAPSSKSTSGGTAALGCLVKDYFPEPVTVSWNSGALTSGVHTFPAVLQSSGLYSLSSVVTVPSSSLGTQTYICNVNHKPSNTKVDKKVEPKSCDKTHTSPPSPAPELLGGPSVFLFPPKPKDTLMISRTPEVTCVVVDVSHEEPEVKFNWYVDGVEVHNAKTKPREEQYNSTYRVVSVLTVLHQDWLNGKEYKCKVSNDALPMPIEETISKAKGQPREPQVYTLPPSRDNLTKNQVSLTCLVKGFYPSDIAVEWESNGQPENNYKTTPPYLDSDGSFFLYSDLTVDKSRWQQGNVFSCSVMHEALHNHYTQESLSLSP
light: DIQMTQSSSSFSVSLGDRVTITCKASEDIYNRLAWYQQKPGNAPRLLISGATSLETGVPSRFSGSGSGKDYTLSITSLQTEDVATYYCQQYWSTPYTFGGGTKLEVKRTVAAPSVFIFPPSDEQLKSGTASVVCLLNNFYPREAKVQWKVDNALQSGNSQESVTEQDSKDSTYSLSSTLTLSKADYEKHKVYACEVTHQGLSSPVTKSFNRGEC
Work on B5 yielded a molar binding ratio [6] of 0.25 molar ratio.

B6: antibody-half molecule B5 with IC17H and IC17L-k0 (IC17H-DB430v2/IC17L-k0) (antibody, human IgG1, kappa)
heavy: QVQLQQSGPQLVRPGASVKISCKASGYSFTSYWMHWVNQRPGQGLEWIGMIDPSYSETRLNQKFKDKATLTVDKSSSTAYMQLSSPTSEDSAVYYCALYGNYFDYWGQGTTLTVSSASTKGPSVFPLAPSSKSTSGGTAALGCLVKDYFPEPVTVSWNSGALTSGVHTFPAVLQSSGLYSLSSVVTVPSSSLGTQTYICNVNHKPSNTKVDKKVEPKSCDKTHTSPPSPAPELLGGPSVFLFPPKPKDTLMISRTPEVTCVVVDVSHEEPEVKFNWYVDGVEVHNAKTKPREEQYNSTYRVVSVLTVLHQDWLNGKEYKCKVSNDALPMPIEETISKAKGQPREPQVYTLPPSRDLLTKNQVSLTCLVKGFYPSDIAVEWESNGQPENNYKTTPPYLDSDGSFFLYSDLTVDKSRWQQGNVFSCSVMHEALHNHYTQESLSLSP
light: DIQMTQSSSSFSVSLGDRVTITCKASEDIYNRLAWYQQKPGNAPRLLISGATSLETGVPSRFSGSGSGKDYTLSITSLQTEDVATYYCQQYWSTPYTFGGGTKLEVKRTVAAPSVFIFPPSDEQLKSGTASVVCLLNNFYPREAKVQWKVDNALQSGNSQESVTEQDSKDSTYSLSSTLTLSKADYEKHKVYACEVTHQGLSSPVTKSFNRGEC
For B6, the molar binding ratio [7] was 0.27 molar ratio.
